Experiment [1] concerns the target T1, AviTag-5-helix-His6x, biotinylated (HIV-1, biotin conjugated to the AviTag with BirA).
T1 construct: also called Biotinylated 5-helix; AviTagged 5-helix; not shown: N-terminal AviTag and any linker
Nature of the experiment: ELISA, biotinylated 5-helix on streptavidin plates, 50 nM GLUE-Cpep pre-incubated in human serum, anti-FLAG detection.

The target in experiment [2] is T2, 5-Helix-His6x (HIV-1).
T2 construct: also called His6-tagged 5-helix; 5-Helix bundle
Nature of the experiment: ELISA on E. coli lysate, His6-tagged 5-helix captured on Ni-NTA plates, anti-FLAG detection.

Experiment [3] deals with T2, 5-Helix-His6x. Nature of the experiment: Ni-NTA co-purification from E. coli lysate, densitometry of the protein bands.
The target of experiment [4] is T2, 5-Helix-His6x. Nature of the experiment: circular dichroism of a 1:1 mixture, wavelength scan and thermal melt.

B1: FLAG-GLUE-Cpep (pET-28a construct, His6x-FLAG-GLUE-Cpep) (designed binder)
chain: MGSSHHHHHHSSGLVPRGSHMDYKDDDDKGGSEYWHYVETTSSGQPLLREGEKDIAIDQSVGLYHGKSKILQRQRGRIFLTSQRIIYIDDAKPTQNSLGLELDDLAYVNYSSGFLTRSPALILFFKDPSSSTEFVQLSFRKSDGVWFSWATEIALYTILIHSLIEESQNQQEKNEQELL
notes: Purified, pre-incubated with human serum, then tested in ELISA on biotinylated 5-helix
With B1, the binding result in experiment [1] is on record as “binds”.

B2: FLAG-CHR (peptide)
peptide: MDYKDDDDKGGSWMEWDREINNYTSLIHSLIEESQNQQEKNEQELL
notes: Co-expressed with 5-Helix-His6x in E. coli; also called C-peptide; native C-peptide
Take B2: the binding result in experiment [2] is “binds”.

B3: GLUE-Cpep (untagged) (designed binder)
chain: MEYWHYVETTSSGQPLLREGEKDIAIDQSVGLYHGKSKILQRQRGRIFLTSQRIIYIDDAKPTQNSLGLELDDLAYVNYSSGFLTRSPALILFFKDPSSSTEFVQLSFRKSDGVWFSWATEIALYTILIHSLIEESQNQQEKNEQELL
notes: Co-expressed with 5-Helix-His6x in E. coli; also called untagged GLUE-Cpep
Regarding B3, the “ratio of proteins in the complex (stoichiometry)” value in experiment [3] is 1 ratio (1:1).

B4: His6x-GLUE-Cpep (designed binder)
chain: MGSSHHHHHHSQDPGLNDIFEAQKIEWHEGGSGGSGGTEYWHYVETTSSGQPLLREGEKDIAIDQSVGLYHGKSKILQRQRGRIFLTSQRIIYIDDAKPTQNSLGLELDDLAYVNYSSGFLTRSPALILFFKDPSSSTEFVQLSFRKSDGVWFSWATEIALYTILIHSLIEESQNQQEKNEQELL
notes: Purified construct used in CD; also called helix-grafted GLUE
As for B4, the binding result in experiment [4] is “binds”.

B5: FLAG-GLUE-Cpep (designed binder)
chain: MDYKDDDDKGGSEYWHYVETTSSGQPLLREGEKDIAIDQSVGLYHGKSKILQRQRGRIFLTSQRIIYIDDAKPTQNSLGLELDDLAYVNYSSGFLTRSPALILFFKDPSSSTEFVQLSFRKSDGVWFSWATEIALYTILIHSLIEESQNQQEKNEQELL
notes: Co-expressed with 5-Helix-His6x in E. coli; lysate ELISA; also called grafted GLUE; helix-grafted GLUE
On to B5, for which the binding result in experiment [2] is “binds”.

B6: FLAG-GLUE (other)
chain: MDYKDDDDKGGSEYWHYVETTSSGQPLLREGEKDIFIDQSVGLYHGKSKILQRQRGRIFLTSQRIIYIDDAKPTQNSLGLELDDLAYVNYSSGFLTRSPALILFFKDPSSSTEFVQLSFRKSDGVLFSQATERALENILT
notes: Co-expressed with 5-Helix-His6x in E. coli; lysate ELISA; also called wtGLUE; wt-GLUE
In the case of B6, the binding result in experiment [2] was “no binding”.
